Experimental data reported in patent US20020127652A1 (published 2002).

T1: human FSH receptor (human, UniProt P23945 18-695)
T1 sequence (looked up): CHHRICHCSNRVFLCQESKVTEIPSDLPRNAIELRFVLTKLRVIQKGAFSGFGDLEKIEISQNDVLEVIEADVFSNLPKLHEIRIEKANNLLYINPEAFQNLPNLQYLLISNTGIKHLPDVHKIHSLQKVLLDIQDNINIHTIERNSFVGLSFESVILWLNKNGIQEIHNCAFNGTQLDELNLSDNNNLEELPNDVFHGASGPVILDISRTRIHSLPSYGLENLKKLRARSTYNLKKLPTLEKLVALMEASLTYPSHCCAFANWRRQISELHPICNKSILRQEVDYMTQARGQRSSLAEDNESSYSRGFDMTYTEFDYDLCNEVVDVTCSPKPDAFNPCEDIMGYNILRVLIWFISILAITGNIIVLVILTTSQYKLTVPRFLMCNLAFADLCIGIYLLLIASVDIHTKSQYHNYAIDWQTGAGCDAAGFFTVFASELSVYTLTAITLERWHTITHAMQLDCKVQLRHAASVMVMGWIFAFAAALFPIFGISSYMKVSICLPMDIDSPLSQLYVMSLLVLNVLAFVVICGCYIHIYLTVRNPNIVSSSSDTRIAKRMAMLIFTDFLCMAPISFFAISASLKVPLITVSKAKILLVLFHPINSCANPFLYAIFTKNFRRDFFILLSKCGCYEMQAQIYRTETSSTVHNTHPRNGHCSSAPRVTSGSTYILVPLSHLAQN

B1: wildtype human FSH (follicle stimulating hormone), recombinant, produced in CHO K1 cells (ligand)
chain 1: not shown
chain 2: CELTNITIAIEKEECRFCISINTTWCAGYCYTRDLVYKDPARPKIQKTCTFKELVYETVRVPGCAHHADSLYTYPVATQCHCGKCDSDSTDCTVRGLGPSYCSFGEMKE
B2: FSH1208, variant form of FSH containing two N-linked glycosylations at the N-terminus of the alpha subunit (ligand)
chain 1: not shown
chain 2: CELTNITIAIEKEECRFCISINTTWCAGYCYTRDLVYKDPARPKIQKTCTFKELVYETVRVPGCAHHADSLYTYPVATQCHCGKCDSDSTDCTVRGLGPSYCSFGEMKE
modifications: both asparagine residues of the N-terminal extension … are glycosylated

Biological target: T1, human FSH receptor
Experiment: cell-based or functional assay

Row | Binder | luciferase signal of the CHO FSH-R/CRE-luc reporter clone, EC50 [IU/ml] | specific activity (in vitro bioactivity in the FSH luciferase assay per FSH content by ELISA), relative to wildtype FSH
1 | B1 | ~0.01 | 
2 | B2 |  | ~0.33 fold of the wildtype reference
